{"source": "patent US9663815B2", "about": "“Cytosolically-active peroxidases as reporters for microscopy” (Massachusetts Institute of Technology, priority 2011, dated 2017)", "key": {"[1]": {"tested_on": "HEK cells", "experiment": "DAB staining of transfected cells (brightfield)", "type": "cell-based", "procedure": "Next, the activity of wt APX and mAPX was compared in mammalian cells.\n(§1) To generate a monomeric APX with improved activity, the two mAPX mutations (K14D/E112K) were added to each of the activity-enhanced mutants. […] The sextuple mutant (K14D, E112K, W41F, D133A, T135F, K136F=mAPX−FFAF), was compared to mAPX+W41F within cells. HEK cells were transfected with constructs targeted to the mitochondrial matrix (Table 3), while COS-7 cells were transfected with constructs fused to the C-terminus of connexin 43 (Table 3). After fixation, the cells were treated with DAB and H2O2 to generate DAB polymer. […] After fixation, cells were stained with anti-Flag (for matrix) or anti-myc (for connexin) antibody to visualize peroxidase expression levels. […] Therefore mAPX+W41F (K14D/E112K/W41F) was selected, denoted as “APEX” (for Enhanced APX), as the optimized reporter for subsequent experiments.\nA solution of 4% formaldehyde (freshly depolymerized from paraformaldehyde) with 2% glutaraldehyde in 10 mM phosphate buffered saline (PBS) was added to cells 24 hours after transfection. Cells were treated for 3 min at room temperature, then 30 min on ice. Cells were then washed 5×2 min using ice cold 10 mM PBS. Cells were blocked with 20 mM glycine for 5 min on ice. Cells were then washed 5×2 min with ice-cold 10 mM PBS. Cells were then treated with an ice-cold solution of DAB (0.5 mg/mL) and H2O2 (0.03%) in 10 mM PBS for 20 min. Cells were then washed 5×2 min with ice-cold 10 mM PBS. Cells were treated with 2% OsO4 in ice-cold 10 mM PBS for 30 min, then washed 5×2 min with ice-cold distilled deionized water. Cells were then placed under ice-cold 2% aqueous uranyl acetate for 24 hours.\n(§2) Any cell displaying detectable GFP fluorescence was considered transfected. Contact sites between neighboring transfected cells were identified using DIC imaging. Gap junctions were identified as lines of GFP fluorescence unambiguously overlaying with the plasma membrane of two transfected cells based on DIC. DAB stain intensity for APX-NES variants was analyzed using SlideBook. Transfected cells were identified by nuclear YFP fluorescence. In each transfected cell, a representative DAB-stained region was encircled, and its average brightfield intensity was calculated. Background intensity, determined for each field of view by encircling a representative region in the cytosol of an untransfected cell, was subtracted out. The bar graph in FIG. 2c represents mean data from >60 transfected cells."}, "[2]": {"experiment": "Guaiacol activity assay (Michaelis-Menten kinetics)", "type": "biochemical", "conditions": "guaiacol as substrate, purified enzyme", "procedure": "Data points represent the mean±standard deviation of 2-3 independent measurements. Initial rates are shown as a function of guaiacol concentration. H2O2 concentration was 90 μM, and enzyme concentration was 20 nM in all trials. Oxidation to tetraguaiacol was monitored by absorbance at 470 nm (ε470=22×10^3 M^−1 cm^−1)^2.\nHigh activity toward guaiacol generally correlated well with robust polymerization of DAB in vitro. Guaiacol assays were performed on a Nanodrop 2000c UV-vis spectrophotometer (Thermo Scientific) using its cuvette reader. HRP (Sigma) was prepared as a 10 μM stock in PBS, flash frozen and stored at −80° C., and thawed immediately before use. Guaiacol peroxidase activity was measured according to the protocol of Lad et. al.^35 Oxidation to tetraguaiacol was monitored by absorbance at 470 nm (ε470=22×10^3 M^−1 cm^−1). Kcat and KM were calculated by nonlinear regression fitting to the Michaelis-Menten equation using OriginPro (OriginLab Corporation). All values are reported as the mean±standard deviation for 2-3 independent Michaelis-Menten fittings, with each fitting using at least 5 values of substrate concentration ranging between 0.25 and 30 mM.\nIn order to improve the performance of mAPX in mammalian cells, monomeric APX was engineered with improved activity toward DAB in the hope that faster kinetics could compensate for diminished heme binding. The substrate binding site of APX was compared to that of HRP, which has faster kinetics and broader aromatic substrate tolerance (Henriksen, et. al., Journal of Biological Chemistry 274, 35005-35011 (1999)). In order to make APX more HRP-like, seven mutants of APX were designed that incorporated mostly aromatic residues into the active site (FIG. 5a). A colorimetric assay was employed using guaiacol, a prototypical aromatic peroxidase substrate, to determine Michaelis-Menten parameters (Kumar, et. al., Journal of Cell Science 108, 3725-3734 (1995); Henriksen, et. al., Journal of Biological Chemistry 274, 35005-35011 (1999)) (FIG. 5b and FIG. 10). […]"}, "[3]": {"tested_on": "connexin43 (Cx43)", "experiment": "Connexin43 fusion localization to gap junctions", "type": "cell-based, rat", "conditions": "for localization of connexin43 fusion / gap junction formation: fused to connexin43", "procedure": "Both mAPX and wt APX were fused to connexin43 (Cx43), a protein that is sensitive to oligomeric tags (FIG. 4d) (McKinney, et. al., Nat Meth 6, 131-133 (2009); Lauf, et. al., FEBS letters 498, 11-15 (2001)).\nas §1, §2"}, "[4]": {"tested_on": "COS-7 cells", "experiment": "EM imaging after DAB/OsO4 staining", "type": "cell-based", "procedure": "Transfected cells cultured on poly-d-lysine coated glass bottom dishes (P35GC-0-14-C, MatTek Corp.) were fixed using room temperature 2% glutaraldehyde (Electron Microscopy Sciences) in 100 mM sodium cacodylate buffer with 2 mM CaCl2, pH 7.4, then quickly moved to ice. Cells were kept between 0 and 4° C. for all subsequent steps until resin infiltration. After 30-60 min, cells were rinsed 5×2 min in chilled buffer, then treated for 5 min in buffer containing 20 mM glycine to quench unreacted glutaraldehyde, followed by 5×2 min rinses in chilled buffer. A freshly-diluted solution of 0.5 mg/mL 3,3′-diaminobenzidine (DAB) tetrahydrochloride or the DAB free base (Sigma) dissolved in HCl were combined with 0.03% (v/v) H2O2 in chilled buffer, and the solution was added to cells for 1 to 15 min, depending on the sample. The reaction product generation could be monitored by transmitted LM. To halt the reaction, the DAB solution was removed, and cells were rinsed 5×2 min with chilled buffer. For correlated LM-EM imaging of connexin43-GFP-APEX, the procedure was the same except cells were immersed in 2% glutaraldehyde for ˜16 h, and regions of interest were identified by GFP fluorescence prior to treatment with DAB. After the DAB reaction was halted, cells were post-fixed for 30 min using 2% osmium tetroxide (Electron Microscopy Sciences) in chilled buffer. Cells were rinsed 5×2 min in chilled distilled water, then placed in chilled 2% aqueous uranyl acetate (Electron Microscopy Sciences) overnight. […]\nDAB-stained areas of embedded cultured cells were identified by transmitted light and the areas of interest were sawed out using a jeweler's saw and mounted on dummy acrylic blocks with cyanoacrylic adhesive. […] Electron micrographs recorded using a JEOL 1200 TEM operating at 80 keV."}, "[5]": {"tested_on": "MCU (mitochondrial calcium uniporter)", "experiment": "Functional assay for Ca2+ uptake of MCU fusions", "type": "cell-based, human", "conditions": "fusion to MCU, versus Flag-tagged MCU; data not shown"}, "[6]": {"experiment": "Gel filtration chromatography, oligomerization state", "type": "physicochemical", "conditions": "PBS pH 7.4", "procedure": "APX, fluorescent protein, or miniSOG preparations were diluted to the desired concentrations using chilled (4° C.) PBS and then allowed to incubate at room temperature for 30 min to overnight. Samples (100 μL) were run on a Waters HPLC system over a Superdex 75 10/300 column (GE Healthcare) that had been pre-equilibrated in PBS, pH 7.4. Samples were run isocratically in PBS at a flow rate of 0.5 mL/min. Elution of APX was monitored at 280 nm and 405 nm (heme absorbance). Empower software (Waters) was used for analysis of elution profiles. Apparent MWs were determined against low molecular weight standards (GE). […] The apparent MW of the monomer for wt APX was assumed to be equal to the apparent MW of mAPX at 0.25 μM.\nTo investigate whether this localization is an artifact of APEX dimerization at high concentrations, the experiment was repeated using a tandem dimer of APX^W41F (two APX^W41F proteins linked with a short amino acid chain, denoted tdAPX) as well as miniSOG in place of APEX. Additionally, gel filtration chromatography (GFC) was used to assess the relative abundance of oligomers that formed at increasing tdAPX concentrations in vitro (5 μM, 20 μM, and 47 μM). Three different linker lengths (18, 23, and 28 amino acids) were tested. His6-tagged proteins were expressed and purified from E. coli. All three variants gave a major peak with an apparent molecular weight (MW) of ˜56 kDa, as expected for tdAPX. The apparent MW of the major peak remained constant as a function of concentration for all three constructs. […] Therefore, the 28 amino acid linker variant was selected as the optimized tandem dimer to be used in EM experiments."}}}
{"molecule": "mAPX-NES: Flag-mAPX with C-terminal nuclear export signal, cytosolic expression (protein, UniProt P48534 2-250, looked up, variant K14D E112K, N-terminal Flag tag; C-terminal nuclear export signal, Flag-mAPX with C-terminal nuclear export signal, cytosolic expression) L-ascorbate peroxidase, …: GKSYPTVSPDYQDAIEKAKRKLRGFIAEKKCAPLILRLAWHSAGTFDSKTKTGGPFGTIKHQAELAHGANNGLDIAVRLLEPIKEQFPIVSYADFYQLAGVVAVEITGGPKVPFHPGREDKPEPPPEGRLPDATKGSDHLRDVFGKAMGLSDQDIVALSGGHTIGAAHKERSGFEGPWTSNPLIFDNSYFTELLTGEKDGLLQLPSDKALLTDSVFRPLVEKYAADEDVFFADYAEAHLKLSELGFAEA", "values": [{"measurement": "activity after culturing the cells with heme", "setting": "[1]; cytosol (NES), heme added after transfection", "result": "significantly boosted"}]}
{"molecule": "W41F/G69F/D133A/T135F/K136F: quintuple, most HRP-like active-site mutant of pea APX (protein, UniProt P48534 2-250, looked up, variant W41F G69F D133A T135F K136F) L-ascorbate peroxidase, …: GKSYPTVSPDYQKAIEKAKRKLRGFIAEKKCAPLILRLAFHSAGTFDSKTKTGGPFGTIKHQAELAHFANNGLDIAVRLLEPIKEQFPIVSYADFYQLAGVVAVEITGGPEVPFHPGREDKPEPPPEGRLPAAFFGSDHLRDVFGKAMGLSDQDIVALSGGHTIGAAHKERSGFEGPWTSNPLIFDNSYFTELLTGEKDGLLQLPSDKALLTDSVFRPLVEKYAADEDVFFADYAEAHLKLSELGFAEA", "values": [{"measurement": "activity in vitro (guaiacol)", "setting": "[2]", "result": "most active"}]}
{"molecule": "mAPX−FFAF: sextuple mutant K14D, E112K, W41F, D133A, T135F, K136F of pea APX (protein, UniProt P48534 2-250, looked up, variant K14D E112K W41F D133A T135F K136F) L-ascorbate peroxidase, …: GKSYPTVSPDYQDAIEKAKRKLRGFIAEKKCAPLILRLAFHSAGTFDSKTKTGGPFGTIKHQAELAHGANNGLDIAVRLLEPIKEQFPIVSYADFYQLAGVVAVEITGGPKVPFHPGREDKPEPPPEGRLPAAFFGSDHLRDVFGKAMGLSDQDIVALSGGHTIGAAHKERSGFEGPWTSNPLIFDNSYFTELLTGEKDGLLQLPSDKALLTDSVFRPLVEKYAADEDVFFADYAEAHLKLSELGFAEA", "values": [{"measurement": "localization of connexin43 fusion / gap junction formation", "setting": "[3]", "result": "formed very few gap junctions"}]}
{"molecule": "APEX: triple mutant K14D/W41F/E112K of pea APX, Enhanced APX reporter (protein, listed as Pisum sativum) MGKSYPTVSPDYQDAIEKAKRKLRGFIAEKKCAPLILRLAFHSAGTFDSKTKTGGPFGTIKHQAELAHGANNGLDIAVRLLEPIKEQFPIVSYADFYQLAGVVAVEITGGPKVPFHPGREDKPEPPPEGRLPDATKGSDHLRDVFGKAMGLSDQDIVALSGGHTIGAAHKERSGFEGPWTSNPLIFDNSYFTELLTGEKDGLLQLPSDKALLTDSVFRPLVEKYAADEDVFFADYAEAHLKLSELGFAEA", "values": [{"measurement": "DAB staining activity in mitochondrial matrix", "setting": "[1]; mitochondrial matrix-targeted constructs, HEK cells", "result": "much stronger DAB stain"}, {"measurement": "EM contrast / DAB staining, ER lumen", "setting": "[4]; KDEL-targeted, COS-7", "result": "dense DAB staining throughout the ER tubular network"}, {"measurement": "EM contrast / DAB staining, mitochondrial matrix", "setting": "[4]; Mito matrix-APEX, COS-7", "result": "strong contrast and well-defined cristae structures"}, {"measurement": "activity in the intermembrane space (IMS)", "setting": "[4]; separate controls", "result": "highly active"}, {"measurement": "DAB stain of connexin fusion", "setting": "[3]; COS-7 cells, fused to C-terminus of connexin 43", "result": "strong DAB stain"}, {"measurement": "localization of connexin43 fusion / gap junction formation", "setting": "[3]", "result": "behaves well as a fusion to Cx43"}, {"measurement": "localization of connexin43 fusion / gap junction formation", "setting": "[3]; listed as mAPX+W41F", "result": "incorporated well into gap junctions"}, {"measurement": "Ca2+ uptake of MCU fusion", "setting": "[5]", "result": "performed comparably to MCU appended to a small Flag epitope tag"}, {"measurement": "oligomerization state", "setting": "[6]", "result": "equally monomeric to mAPX"}]}
